The source of these data is article PMC9303311.

One data set deals with SAMHD1 T592E (Homo sapiens, UniProt Q9Y3Z3 1-626, T592E). Description: fluorescence anisotropy.
The target of another data set is SAMHD1 wild-type (Homo sapiens, UniProt Q9Y3Z3 1-626). Description: fluorescence anisotropy. (In general: In fluorescence polarisation assays a small probe gives low polarisation when free and higher when bound to something large.)
SAMHD1 wild-type, sequence (Q9Y3Z3 whole entry): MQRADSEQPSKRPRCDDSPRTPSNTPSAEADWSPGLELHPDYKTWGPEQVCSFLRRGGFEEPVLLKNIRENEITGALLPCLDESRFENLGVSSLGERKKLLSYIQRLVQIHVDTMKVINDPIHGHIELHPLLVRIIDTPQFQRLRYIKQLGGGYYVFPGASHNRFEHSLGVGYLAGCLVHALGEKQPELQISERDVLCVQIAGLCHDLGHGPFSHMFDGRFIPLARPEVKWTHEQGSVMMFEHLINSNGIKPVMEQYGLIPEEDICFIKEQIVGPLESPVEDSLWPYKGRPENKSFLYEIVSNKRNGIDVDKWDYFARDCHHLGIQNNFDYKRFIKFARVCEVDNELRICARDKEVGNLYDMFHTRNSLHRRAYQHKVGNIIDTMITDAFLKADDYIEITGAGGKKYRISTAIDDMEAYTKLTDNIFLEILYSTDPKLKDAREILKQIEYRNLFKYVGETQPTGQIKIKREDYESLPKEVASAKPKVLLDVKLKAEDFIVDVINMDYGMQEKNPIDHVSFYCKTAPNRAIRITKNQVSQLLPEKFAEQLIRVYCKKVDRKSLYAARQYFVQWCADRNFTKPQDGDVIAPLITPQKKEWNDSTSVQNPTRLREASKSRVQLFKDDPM

SAMHD1 T592E, sequence (Q9Y3Z3 whole entry T592E): as the sequence (Q9Y3Z3 whole entry) above, with T592E counted along it

B1: 5'FAM-ssDNA57 (ssDNA)
DNA: TGGAGAATCCCGGTGCCGAGGCCGCTCAATTGGTCGTAGACAGCTCTAGCACCGCTT
By Kd is commonly meant the equilibrium constant for the complex coming apart. Lower therefore signals higher affinity. Molecule B1 registered a Kd with SAMHD1 T592E of 431 ± 25 nM.

For the molecule CGCCT (XNA, phosphorothioate at every internucleotide linkage, mixed Rp/Sp) [5'FAM-PsDNA5], the Kd came out at 283 ± 8 nM with SAMHD1 T592E and 119 ± 7 nM with SAMHD1 wild-type.
